Measurements published in US20230044278A1 (DYNE THERAPEUTICS, published 2023).
Residue numbers refer to the chain shown, from its start. Names may count otherwise. Blank lines part the entries; values can stand above or below the binder they belong to.

Columns and labels:
[1] = target: T1, recombinant cynomolgus monkey (Macaca fascicularis) transferrin receptor 1 (cynomolgus monkey (Macaca fascicularis), UniProt Q5RDH6 87-760 (Pongo abelii entry), limits assumed); experiment: ELISA, thermal stability d9 (after 9 days at high temperature); printed as 'Binding affinity cyno TfR1 d9 (nM)'
T1 construct: also called cTfR1; cyno TfR1
T1 chain: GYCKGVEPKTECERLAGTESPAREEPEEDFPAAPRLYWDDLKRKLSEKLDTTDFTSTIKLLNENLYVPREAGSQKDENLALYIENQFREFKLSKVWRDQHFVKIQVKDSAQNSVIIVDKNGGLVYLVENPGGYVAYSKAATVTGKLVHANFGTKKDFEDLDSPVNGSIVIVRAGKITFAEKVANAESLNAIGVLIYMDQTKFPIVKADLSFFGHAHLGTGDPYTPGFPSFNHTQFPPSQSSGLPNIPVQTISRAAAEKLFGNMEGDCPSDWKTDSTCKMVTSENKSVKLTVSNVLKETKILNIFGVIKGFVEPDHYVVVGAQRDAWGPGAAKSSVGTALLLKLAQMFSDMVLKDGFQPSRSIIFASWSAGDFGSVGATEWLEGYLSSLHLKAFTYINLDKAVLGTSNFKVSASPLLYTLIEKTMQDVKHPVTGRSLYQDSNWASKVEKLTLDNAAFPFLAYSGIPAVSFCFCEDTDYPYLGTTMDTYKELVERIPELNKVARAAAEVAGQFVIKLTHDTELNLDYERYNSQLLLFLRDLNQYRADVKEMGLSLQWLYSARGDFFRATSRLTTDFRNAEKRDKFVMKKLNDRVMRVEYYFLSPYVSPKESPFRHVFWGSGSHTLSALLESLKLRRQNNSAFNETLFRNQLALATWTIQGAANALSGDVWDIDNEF
Method: The selected Fabs were analyzed for their properties binding to TfR1 by kinetic analysis. For conjugates shown in Table 8 and Table 9, the selected humanized Fabs were conjugated to a DMPK-targeting oligonucleotide ASO300.
(§1) To measure binding of humanized anti-TfR antibodies to TfR1, ELISAs were conducted. High binding, black, flat bottom, 96 well plates (Corning #3925) were first coated with 100 μL/well of recombinant huTfR1 at […] in PBS and incubated at 4° C. overnight. Wells were emptied and residual liquid was removed. Blocking was conducted by adding 200 μL of 1% BSA (w/w) in PBS to each well. Blocking was allowed to proceed for 2 hours at room temperature on a shaker at 300 rpm. After blocking, liquid was removed and wells were washed three times with 300 μL of TBST. Anti-TfR1 antibodies were then added in 0.5% BSA/TBST in triplicate in an 8 point serial dilution (dilution range 5 μg/mL-5 ng/mL). A positive control and isotype controls were also included on the ELISA plate. The plate was incubated at room temperature on an orbital shaker for 60 minutes at 300 rpm, and the plate was washed three times with 300 μL of TBST. Anti-(H+L)IgG-A488 (1:500) (Invitrogen #A11013) was diluted in 0.5% BSA in TBST, and 100 μL was added to each well. The plate was then allowed to incubate at room temperature for 60 minutes at 300 rpm on orbital shaker. The liquid was removed and the plate was washed four times with 300 μL of TBST. Absorbance was then measured at 495 nm excitation and […] (with a 15 nm bandwidth) on a plate reader. Data was recorded and analyzed for EC₅₀. […] ELISA measurements were conducted using cynomolgus monkey (Macaca fascicularis) TfR1 (cTfR1) according to the same protocol described above for hTfR1, and results are shown in FIGS. 1B, 1D, and 1F.

[2] = target: T2, recombinant human transferrin receptor 1 (human, UniProt P02786 89-760); experiment: ELISA, thermal stability d9 (after 9 days at high temperature); printed as 'Binding affinity hTfR1 d9 (nM)'
T2 construct: also called hTfR1; huTfR1
Method: as §1

[3] = target: T2, recombinant human transferrin receptor 1; experiment: ELISA, Fab-ASO300 conjugate; printed as 'DMPK oligo conjugate binding to hTfR1 (nM)'; Table 9 (thermal stability table); DMPK oligo conjugate, hTfR1
[4] = target: T1, recombinant cynomolgus monkey (Macaca …); experiment: ELISA, Fab-ASO300 conjugate; printed as 'DMPK oligo conjugate binding to cyno TfR1 (nM)'
[5] = target: T2, recombinant human transferrin receptor 1; experiment: ELISA, Fab-ASO300 conjugate; printed as 'DMPK oligo conjugate binding to hTfR1 (nM)'

- EC50 [1]: 0.26 nM
- EC50 [2]: 1730 nM
B1: humanized anti-TfR Fab 5H12 (VH5-C33Y/Vk4) (Fab, V domains shown)
VH: QVQLVQSGAEVKKPGASVKVSCKASGYSFTDYYINWVRQAPGQGLEWMGWIYPGSGNTRYSERFKGRVTITRDTSASTAYMELSSLRSEDTAVYYCAREDYYPYHGMDYWGQGTLVTVSS
VL: DIVMTQSPDSLAVSLGERATINCRASESVDGYDNSFMHWYQQKPGQPPKLLIFRASNLESGVPDRFSGSGSGTDFTLTISSLQAEDVAVYYCQQSSEDPWTFGQGTKLEIKR
notes: unconjugated; also called 5H12 VH5 (C33Y*)/Vκ4

- EC50 [3]: 13.9 nM
- EC50 [4]: 13.9 nM
B2: 5H12 (VH5-C33Y/Vk4) Fab conjugated to DMPK-targeting oligonucleotide ASO300 (Fab, V domains shown)
VH: B1 VH
VL: B1 VL
modifications: ASO300 oligonucleotide covalently conjugated via linker of Formula (C); residue and chain not stated
notes: also called DMPK oligo conjugate

- EC50 [1]: 0.69 nM
- EC50 [2]: 71.9 nM
B3: humanized anti-TfR Fab 5H12 (VH5-C33Y/Vk3) (Fab, V domains shown)
VH: B1 VH
VL: B1 VL with M4L, G72R
notes: unconjugated; also called 5H12 VH5 (C33Y*)/Vκ3

- EC50 [1]: 0.63 nM
- EC50 [2]: 92.3 nM
B4: humanized anti-TfR Fab 5H12 (VH5-C33D/Vk4) (Fab, V domains shown)
VH: B1 VH with Y33D
VL: B1 VL
notes: unconjugated; also called 5H12 VH5 (C33D*)/Vκ4

- EC50 [1]: 19.5 nM
- EC50 [2]: 0.98 nM
B5: humanized anti-TfR Fab 3M12 (VH3/Vk2) (Fab, V domains shown)
VH: QVQLQESGPGLVKPSQTLSLTCSVTGYSITSGYYWNWIRQPPGKGLEWMGYITFDGANNYNPSLKNRVSISRDTSKNQFSLKLSSVTAEDTATYYCTRSSYDYDVLDYWGQGTTVTVSS
VL: DIQMTQSPSSLSASVGDRVTITCRASQDISNFLNWYQQKPGQPVKLLIYYTSRLHSGVPSRFSGSGSGTDFTLTISSLQPEDFATYFCQQGHTLPYTFGQGTKLEIKR
notes: unconjugated; also called 3M12 VH3/Vκ2

- EC50 [4]: 2.26 nM
- EC50 [5]: 1.14 nM
B6: 3M12 (VH3/Vk2) Fab conjugated to DMPK-targeting oligonucleotide ASO300 (Fab, V domains shown)
VH: B5 VH
VL: B5 VL
modifications: ASO300 oligonucleotide covalently conjugated via linker of Formula (C); residue and chain not stated
notes: also called 3M12 (VH3/Vk2) conjugate; DMPK oligo conjugate

- EC50 [1]: 16.4 nM
- EC50 [2]: 0.28 nM
B7: humanized anti-TfR Fab 3M12 (VH4/Vk3) (Fab, V domains shown)
VH: B5 VH with S23T, M49I
VL: B5 VL with F87Y
notes: unconjugated; also called 3M12 VH4/Vκ3

- EC50 [1]: 15.6 nM
- EC50 [2]: 1.49 nM
B8: humanized anti-TfR Fab 3M12 (VH3/Vk3) (Fab, V domains shown)
VH: B5 VH
VL: B5 VL with F87Y
notes: unconjugated; also called 3M12 VH3/Vκ3

- EC50 [4]: 1.85 nM
- EC50 [5]: 1.18 nM
B9: 3M12 (VH4/Vk3) Fab conjugated to DMPK-targeting oligonucleotide ASO300 (Fab, V domains shown)
VH: B5 VH with S23T, M49I
VL: B5 VL with F87Y
modifications: ASO300 oligonucleotide covalently conjugated via linker of Formula (C); residue and chain not stated
notes: also called 3M12 (VH4/Vk3) conjugate; DMPK oligo conjugate

- EC50 [1]: 5.01 nM
- EC50 [2]: 0.5 nM
B10: humanized anti-TfR Fab 3M12 (VH4/Vk2) (Fab, V domains shown)
VH: B5 VH with S23T, M49I
VL: B5 VL
notes: unconjugated; also called 3M12 VH4/Vκ2

- EC50 [1]: 128 nM
- EC50 [2]: 0.4 nM
B11: humanized anti-TfR Fab 3A4 (VH3-N54T/Vk4) (Fab, V domains shown)
VH: EVQLVQSGSELKKPGASVKVSCTASGFNIKDDYMYWVRQPPGKGLEWIGWIDPETGDTEYASKFQDRVTVTADTSTNTAYMELSSLRSEDTAVYYCTLWLRRGLDYWGQGTLVTVSS
VL: DIVMTQSPLSLPVTPGEPASISCRSSKSLLHSNGYTYLFWFQQRPGQSPRLLIYRMSNLASGVPDRFSGSGSGTDFTLKISRVEAEDVGVYYCMQHLEYPFTFGGGTKVEIKR
notes: unconjugated; also called 3A4 VH3 (N54T*)/Vκ4

- EC50 [4]: 5.12 nM
- EC50 [5]: 2.22 nM
B12: 3A4 (VH3-N54T/Vk4) Fab conjugated to DMPK-targeting oligonucleotide ASO300 (Fab, V domains shown)
VH: B11 VH
VL: B11 VL
modifications: ASO300 oligonucleotide covalently conjugated via linker of Formula (C); residue and chain not stated
notes: also called 3A4 (VH3-N54T/Vk4) conjugate; DMPK oligo conjugate

- EC50 [4]: 4.1 nM
- EC50 [5]: 2.71 nM
B13: 3A4 (VH3-N54S/Vk4) Fab conjugated to DMPK-targeting oligonucleotide ASO300 (Fab, V domains shown)
VH: B11 VH with T55S
VL: B11 VL
modifications: ASO300 oligonucleotide covalently conjugated via linker of Formula (C); residue and chain not stated
notes: also called 3A4 (VH3-N54S/Vk4) conjugate; DMPK oligo conjugate

- EC50 [1]: 248 nM
- EC50 [2]: 0.65 nM
B14: humanized anti-TfR Fab 3A4 (VH3-N54S/Vk4) (Fab, V domains shown)
VH: B11 VH with T55S
VL: B11 VL
notes: unconjugated; also called 3A4 VH3 (N54S*)/Vκ4

- EC50 [1]: 878 nM
- EC50 [2]: 0.46 nM
B15: humanized anti-TfR Fab 3A4 (VH3/Vk4) (Fab, V domains shown)
VH: B11 VH with T55N
VL: B11 VL
notes: unconjugated; also called 3A4 VH3 /Vκ4
